Positions of bridges follow the written chain, without caps; N, C: chain ends. Primed or numbered codes have the meaning given here. No end group written: not given here. *: point of attachment. dimannose = dimannose sugar chain attached to the residue; GlcNAc(3) = GlcNAc attached to the Cys side chain; Biotin = O=C1N[C@H]2[C@H](CS[C@H]2CCCCC(=O)*)N1; disialo = disialo sugar chain; GlcNAc = N-acetylglucosamine

Test [1] concerns the target somatostatin receptors SSTR1-SSTR5 (receptor not singled out in the sentence). Put plainly: competitive radioligand binding.
For test [2], the target named is somatostatin receptor SSTR3 (Human, UniProt P32745 1-418). The test is described as follows: competitive radioligand binding.
Sequence of somatostatin receptor SSTR3 (P32745 whole entry): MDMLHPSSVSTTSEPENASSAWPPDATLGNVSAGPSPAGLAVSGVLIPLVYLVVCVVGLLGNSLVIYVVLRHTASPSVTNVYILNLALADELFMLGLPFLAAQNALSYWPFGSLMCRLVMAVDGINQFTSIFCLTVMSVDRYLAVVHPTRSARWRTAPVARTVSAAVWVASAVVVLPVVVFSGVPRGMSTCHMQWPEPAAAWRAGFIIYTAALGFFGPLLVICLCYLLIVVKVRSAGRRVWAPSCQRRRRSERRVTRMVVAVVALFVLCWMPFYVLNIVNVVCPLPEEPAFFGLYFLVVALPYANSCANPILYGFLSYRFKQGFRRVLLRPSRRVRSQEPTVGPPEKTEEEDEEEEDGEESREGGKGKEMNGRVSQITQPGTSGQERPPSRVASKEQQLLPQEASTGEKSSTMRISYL
For test [3], the target named is Somatostatin receptor SSTR2 (UniProt P30874 1-369, limits assumed). Put plainly: cell-based or functional assay.
Sequence of Somatostatin receptor SSTR2 (P30874 whole entry): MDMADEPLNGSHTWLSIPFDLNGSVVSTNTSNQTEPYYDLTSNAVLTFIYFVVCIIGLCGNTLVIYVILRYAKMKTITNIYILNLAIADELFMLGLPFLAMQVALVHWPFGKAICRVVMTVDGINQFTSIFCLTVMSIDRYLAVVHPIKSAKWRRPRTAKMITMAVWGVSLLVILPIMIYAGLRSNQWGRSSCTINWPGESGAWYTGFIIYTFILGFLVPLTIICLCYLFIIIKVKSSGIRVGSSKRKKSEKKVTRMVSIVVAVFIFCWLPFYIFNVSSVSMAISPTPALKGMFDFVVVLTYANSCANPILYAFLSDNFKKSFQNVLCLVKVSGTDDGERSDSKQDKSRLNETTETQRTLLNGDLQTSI
For test [4], the target named is Somatostatin receptor SSTR5 (UniProt P35346 1-364, limits assumed). The test is described as follows: cell-based or functional assay.
Sequence of Somatostatin receptor SSTR5 (P35346 whole entry): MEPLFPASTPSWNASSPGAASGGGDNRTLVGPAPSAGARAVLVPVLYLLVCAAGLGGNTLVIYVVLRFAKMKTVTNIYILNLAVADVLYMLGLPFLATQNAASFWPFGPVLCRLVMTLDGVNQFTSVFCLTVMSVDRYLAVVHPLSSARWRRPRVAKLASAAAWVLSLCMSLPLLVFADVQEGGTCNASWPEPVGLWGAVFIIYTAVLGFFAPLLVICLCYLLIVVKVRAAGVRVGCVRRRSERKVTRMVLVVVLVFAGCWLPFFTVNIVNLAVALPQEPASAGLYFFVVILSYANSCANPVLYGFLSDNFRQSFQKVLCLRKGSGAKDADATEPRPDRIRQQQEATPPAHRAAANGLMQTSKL
The target of test [5] is Somatostatin receptor SSTR4 (UniProt P31391 1-388, limits assumed). The test is described as follows: cell-based or functional assay.
Sequence of Somatostatin receptor SSTR4 (P31391 whole entry): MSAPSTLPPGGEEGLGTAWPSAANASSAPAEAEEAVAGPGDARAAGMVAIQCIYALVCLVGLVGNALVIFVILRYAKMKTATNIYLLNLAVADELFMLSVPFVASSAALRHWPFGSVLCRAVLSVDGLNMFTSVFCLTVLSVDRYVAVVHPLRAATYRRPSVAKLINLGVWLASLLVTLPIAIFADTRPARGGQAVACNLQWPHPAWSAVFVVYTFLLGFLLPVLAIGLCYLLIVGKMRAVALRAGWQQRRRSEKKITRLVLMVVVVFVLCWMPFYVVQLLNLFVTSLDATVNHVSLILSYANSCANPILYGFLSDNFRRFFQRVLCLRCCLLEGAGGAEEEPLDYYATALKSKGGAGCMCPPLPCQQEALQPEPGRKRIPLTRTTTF
Test [6] addresses Somatostatin receptor SSTR1 (human recombinant, CHO-K1 cells) (human, UniProt P30872 1-391). Put plainly: competitive radioligand binding.
For test [7], the target named is T1, somatostatin receptor SSTR2 (Human, UniProt P30874 1-369). Put plainly: competitive radioligand binding.
T1 sequence (P30874 whole entry): as the sequence (P30874 whole entry) above
Test [8] has as its target Somatostatin receptor SSTR3 (human recombinant, CHO-K1 cells) (human, UniProt P32745 1-418). The test is described as follows: competitive radioligand binding.
Test [9] addresses somatostatin receptor SSTR4 (Human, UniProt P31391 1-388). The test is described as follows: cell-based or functional assay.
Test [10] deals with T1, somatostatin receptor SSTR2. The test is described as follows: cell-based or functional assay.
Test [11] deals with somatostatin receptor SSTR2 (human) (UniProt P30874). The test is described as follows: competitive radioligand binding.
Sequence of somatostatin receptor SSTR2 (human) (P30874 whole entry): as above
The target of test [12] is somatostatin receptor SSTR1 (human) (UniProt P30872). The test is described as follows: competitive radioligand binding.
Sequence of somatostatin receptor SSTR1 (human) (P30872 whole entry): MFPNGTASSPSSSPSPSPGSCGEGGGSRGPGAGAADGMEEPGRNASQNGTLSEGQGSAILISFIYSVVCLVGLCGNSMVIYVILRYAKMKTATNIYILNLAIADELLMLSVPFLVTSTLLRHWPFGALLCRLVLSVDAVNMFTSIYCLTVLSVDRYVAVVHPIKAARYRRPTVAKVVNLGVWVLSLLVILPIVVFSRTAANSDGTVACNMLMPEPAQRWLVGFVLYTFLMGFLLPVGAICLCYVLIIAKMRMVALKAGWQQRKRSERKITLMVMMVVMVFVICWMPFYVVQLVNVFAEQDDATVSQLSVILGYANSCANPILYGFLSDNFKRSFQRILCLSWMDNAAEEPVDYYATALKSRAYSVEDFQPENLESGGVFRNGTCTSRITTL
The target of test [13] is somatostatin receptor SSTR1 (Human, UniProt P30872 1-391). Put plainly: competitive radioligand binding.
Sequence of somatostatin receptor SSTR1 (P30872 whole entry): as above

Sequence of somatostatin receptor SSTR4 (P31391 whole entry): as the sequence (P31391 whole entry) above
Sequence of Somatostatin receptor SSTR1 (human recombinant, CHO-K1 cells) (P30872 whole entry): as the sequence (P30872 whole entry) above
Sequence of Somatostatin receptor SSTR3 (human recombinant, CHO-K1 cells) (P32745 whole entry): as the sequence (P32745 whole entry) above

“S1C(disialo).N5C(disialo)-SRIF28 (peptide)”: the ratio of Ki to the Ki of unglycosylated SRIF14 in [1] is 15.7 ratio (:1).

B1: Biotin-S1C(disialo)-SRIF28 (peptide)
peptide: Biotin-C(disialo sugar chain)ANSNPAMAPRERKAGCKNFFWKTFTSC
modifications: disulfide 17-28
In [2], B1 had a Ki of 1 nM.

B2: S1C(GlcNAc)-SRIF28 (peptide)
peptide: C(GlcNAc(3))ANSNPAMAPRERKAGCKNFFWKTFTSC
modifications: disulfide 17-28
For B2, in test [3], the “IC50 of cAMP production suppressing action (agonist activity)” value (from here on “IC50 … (agonist activity)”) stood at 0.04 nM.

B3: S1C(disialo).N5C(disialo)-SRIF28 (peptide)
peptide: C(disialo sugar chain)ANSC(disialo sugar chain)PAMAPRERKAGCKNFFWKTFTSC
modifications: disulfide 17-28
Regarding B3, in test [4], the “IC50 … (agonist activity)” value came to 0.09 nM.

B4: S1C(diGlcNAc)-SRIF28 (peptide)
peptide: C(diGlcNAc sugar chain)ANSNPAMAPRERKAGCKNFFWKTFTSC
modifications: disulfide 17-28
For the molecule B4, the “IC50 … (agonist activity)” value in [5] was 0.05 nM.

B5: N5C(disialo).A9C(disialo)-SRIF28 (peptide)
peptide: SANSC(disialo)PAMC(disialo)PRERKAGCKNFFWKTFTSC
modifications: disulfide 17-28
Turning to B5, the concentration for half-maximal inhibition (IC50) in [6] turned out to be 30 nM.

B6: S1C(disialo).N5C(disialo).A9C(disialo)-SRIF28 (peptide)
peptide: C(disialo sugar chain)ANSC(disialo sugar chain)PAMC(disialo sugar chain)PRERKAGCKNFFWKTFTSC
modifications: disulfide 17-28
On to B6, for which the fold difference in Ki against the glycosylated forms of Examples 1 and 21 in [1] came to 10 fold.

B7: S1C(disialo)-SRIF28-amide (peptide)
peptide: C(disialo sugar chain)ANSNPAMAPRERKAGCKNFFWKTFTSC-NH2
modifications: disulfide 17-28
In the case of B7, the affinity in [7] corresponds to a Ki of 0.7 nM.

B8: 29C(disialo)-SRIF28 (peptide)
peptide: SANSNPAMAPRERKAGCKNFFWKTFTSCC
modifications: disialo sugar chain attached Cys added after Cys28 (position 29); disulfide bond Cys17-Cys28
In the case of B8, the IC50 in test [8] is 7 nM.

B9: S1C(disialo)-SRIF28 (peptide)
peptide: C(disialo sugar chain)ANSNPAMAPRERKAGCKNFFWKTFTSC
modifications: disulfide 17-28
For B9, the “IC50 … (agonist activity)” value is 0.065 nM in test [9] and 0.075 nM in test [10].

B10: F25C(disialo)-SRIF28 (peptide)
peptide: SANSNPAMAPRERKAGCKNFFWKTC(disialo)TSC
modifications: disulfide 17-28
With B10, the Ki as fold of that of SRIF14 in [11] and in test [12] was 310 to 5300 fold each time. Besides, the Ki was above 342 nM in test [2], above 828 nM in [13] and above 531 nM in [7].

B11: S1N(disialo).N19C(diMan)-SRIF28 (peptide)
peptide: N(disialo sugar chain)ANSNPAMAPRERKAGCKC(dimannose)FFWKTFTSC
modifications: disulfide 17-28
In test [7], B11 yielded a Ki of 3 nM. This counts as single-digit nanomolar.

B12: S1C(disialo).N19C(GlcNAc)-SRIF28 (peptide)
peptide: C(disialo sugar chain)ANSNPAMAPRERKAGCKC(GlcNAc)FFWKTFTSC
modifications: disulfide 17-28
For the molecule B12, the “IC50 … (agonist activity)” value in [3] worked out at 0.08 nM.

As usually defined, the Ki is the dissociation constant of the complex between target and ligand, obtained from inhibition or displacement. Low values mean a stronger hold on the target, high ones a looser hold on the target. Broadly, the IC50 is the midpoint of a concentration-inhibition curve.

These data come from patent publication US20160368961A1 (GLYTECH, published 2016).
